Publication PMC6374916

Legend:
[1] = molecular target: K18 ΔK280 tau-AF488 fibrils; test: FRET or BRET; smFRET saturation binding, pseudo-equilibrium, apparent constants; 100 nM tau-AF488 oligomers or 1200 nM fibrils (initial monomer concentration; donor) mixed with 0.5 nM to 10 uM Hsp70-AF647 (acceptor), 5 min on ice, then diluted to 200 pM tau and read on a confocal setup; oligomer size classes by fluorescence intensity
[2] = molecular target: K18 ΔK280 tau-AF488 oligomers, large (10-mers and higher, apparent size); test: as above
[3] = molecular target: K18 ΔK280 tau oligomers, dual-labeled (tau-AF488/AF647 coaggregates); test: single-molecule TIRF microscopy colocalisation; dual-labeled tau oligomers produced (heparin, 45 min, 37 °C) in the presence of 2 uM Hsp70-AF405 (1:5 Hsp70/tau), diluted into 0.05 M ammonium acetate pH 7 to 50–200 pM tau, adsorbed onto a glass cover slide for 15 min

Row | Kd [1] [nM] | Kd [2] [nM] | stoichiometry N (Hsp70 molecules per tau monomer) [3] | Substance
1 | 19 | 170 | – | Hsp70 labeled with Alexa Fluor 647 (from UniProt P0DMV8 1-641) (natural protein)
2 | – | – | 0.5 | Hsp70 labeled with Alexa Fluor 405 (from UniProt P0DMV8 1-641) (natural protein)
